These results are taken from US20210060171A1 (DUKE UNIVERSITY, published 2021).

One assay deals with T1, human serum albumin (human, UniProt P02768 25-609).
T1 construct: also called HSA; HAS
Briefly: isothermal titration calorimetry, HSA injected into ABD-Dox in PBS at 37 C, independent binding site model. (ITC needs no label: the signal is the heat of the interaction.)

Another assay addresses T2, mouse serum albumin (mouse, UniProt P07724 25-608).
T2 construct: also called MSA
Nature of the assay: isothermal titration calorimetry, MSA injected into ABD-Dox in PBS at 37 C, independent binding site model.

No end group written: not given here.

One may read the Kd as the concentration at which binding is half-saturated. Low values mean a tighter complex, high ones a looser complex.

T2 sequence (P07724 25-608 limits assumed): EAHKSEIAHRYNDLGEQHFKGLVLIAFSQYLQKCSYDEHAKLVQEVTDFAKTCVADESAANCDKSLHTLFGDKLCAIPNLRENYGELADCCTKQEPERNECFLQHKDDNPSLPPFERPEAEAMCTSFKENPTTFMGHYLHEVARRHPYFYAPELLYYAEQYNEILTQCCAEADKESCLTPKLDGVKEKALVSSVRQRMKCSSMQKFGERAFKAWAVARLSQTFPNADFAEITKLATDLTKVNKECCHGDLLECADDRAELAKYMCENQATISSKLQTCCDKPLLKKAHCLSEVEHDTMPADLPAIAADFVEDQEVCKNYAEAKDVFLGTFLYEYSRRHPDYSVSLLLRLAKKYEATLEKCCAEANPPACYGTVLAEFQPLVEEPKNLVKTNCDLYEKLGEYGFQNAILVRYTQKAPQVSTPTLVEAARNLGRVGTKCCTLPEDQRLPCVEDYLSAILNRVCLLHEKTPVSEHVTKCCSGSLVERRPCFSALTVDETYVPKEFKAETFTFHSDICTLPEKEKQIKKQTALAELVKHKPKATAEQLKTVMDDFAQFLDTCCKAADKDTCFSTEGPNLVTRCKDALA

B1: ABD-Dox (ABD-(CGG)4-Dox with 1 and 2 conjugated Dox molecules) (peptide)
chain: GLAEAKVLANRELDKYGVSDYYKNLINNAKTVEGVKALIDEILAALPCGGCGGCGGCGG
modifications: also: 1-2 doxorubicin via EMCH (maleimide, hydrazone) on Cys of C-terminal (CGG)4
notes: Product of sortase A cleavage of KEKE-ELP160-srt-ABD-(CGG)4-Dox; also called AlBiPeD
B1: in the assay with human serum albumin, the Kd was determined as 125 nM, the ΔH was -6.72 kcal/mol and the ΔS was found to be 41.5 Jmol^-1K^-1. In the assay with mouse serum albumin, this molecule came in with a Kd of 73.8 nM, a ΔH of -4.45 kcal/mol and a ΔS of 76.6 Jmol^-1K^-1.
